According to PMC6077249, “Insights into Centromere DNA Bending Revealed by the Cryo-EM Structure of the Core Centromere Binding Factor 3 with Ndc10”:

Key:
Cep3ΔN = Cep3ΔN (Saccharomyces cerevisiae, UniProt P40969 47-608); assay: EMSA; DNA 1.6 uM; EMSA: 25 mM HEPES pH 8.0, 200 mM KCl, 2 mM DTT, 10% glycerol, 0.02% NP-40, 10 mM MgCl2, 10 uM ZnCl2; room temperature 45 min; native PAGE at 4 C; conditions: protein: recombinant; tags: N-terminal His; chain copies: 2; label: fluorescent label, singly or doubly labeled
Sequence of Cep3ΔN (P40969 47-608, stated change not applied): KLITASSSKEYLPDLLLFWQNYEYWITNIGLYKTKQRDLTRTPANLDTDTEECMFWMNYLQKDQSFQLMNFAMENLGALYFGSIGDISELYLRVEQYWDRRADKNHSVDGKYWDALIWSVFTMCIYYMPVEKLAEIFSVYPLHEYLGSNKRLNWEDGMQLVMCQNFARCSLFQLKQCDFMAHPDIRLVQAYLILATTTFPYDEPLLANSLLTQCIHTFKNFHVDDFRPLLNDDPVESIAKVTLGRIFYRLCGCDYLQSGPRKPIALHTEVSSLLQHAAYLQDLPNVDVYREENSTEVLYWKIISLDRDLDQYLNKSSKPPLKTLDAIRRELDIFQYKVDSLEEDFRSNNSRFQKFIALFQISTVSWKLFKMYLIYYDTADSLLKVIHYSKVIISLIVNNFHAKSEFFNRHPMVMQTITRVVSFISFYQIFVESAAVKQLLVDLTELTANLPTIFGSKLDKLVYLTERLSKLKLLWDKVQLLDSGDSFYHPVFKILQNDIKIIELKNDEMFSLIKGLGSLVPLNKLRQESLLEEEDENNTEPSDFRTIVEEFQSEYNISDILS

Ctf13;Skp1;Cep3ΔN [1] = target: T1, Ctf13;Skp1;Cep3ΔN (Saccharomyces cerevisiae;Saccharomyces …, UniProt P35203;P52286;P40969 1-478;1-194;47-608, ||); assay: as above; conditions: protein: recombinant;recombinant;recombinant; tags: C-terminal CBP;;N-terminal His; copies: 1;1;2; label: fluorescent label, singly or doubly labeled
T1 sequence (P35203 whole entry, stated change not applied, chain 1 of 3): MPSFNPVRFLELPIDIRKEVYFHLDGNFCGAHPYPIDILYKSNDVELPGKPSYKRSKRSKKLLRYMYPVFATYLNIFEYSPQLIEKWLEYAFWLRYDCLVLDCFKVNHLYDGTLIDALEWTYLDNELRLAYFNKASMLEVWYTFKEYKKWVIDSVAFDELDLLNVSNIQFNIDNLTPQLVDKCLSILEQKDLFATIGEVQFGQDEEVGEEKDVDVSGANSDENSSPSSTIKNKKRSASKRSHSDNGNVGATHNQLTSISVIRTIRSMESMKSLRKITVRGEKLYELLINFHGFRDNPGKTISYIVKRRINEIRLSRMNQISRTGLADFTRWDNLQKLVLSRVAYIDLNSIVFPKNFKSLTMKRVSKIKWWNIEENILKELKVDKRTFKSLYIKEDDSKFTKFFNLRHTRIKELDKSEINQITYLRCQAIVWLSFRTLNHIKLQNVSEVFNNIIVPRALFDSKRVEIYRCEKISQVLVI
T1 sequence (P52286 whole entry, stated change not applied, chain 2 of 3): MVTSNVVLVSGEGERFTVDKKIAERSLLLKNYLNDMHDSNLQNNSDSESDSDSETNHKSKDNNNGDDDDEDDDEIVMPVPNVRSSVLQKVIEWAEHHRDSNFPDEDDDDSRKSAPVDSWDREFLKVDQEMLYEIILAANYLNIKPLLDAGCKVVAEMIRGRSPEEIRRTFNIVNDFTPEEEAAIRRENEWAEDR
T1 sequence (P40969 47-608, stated change not applied, chain 3 of 3): as the sequence (P40969 47-608, stated change not applied) above

Cep3 full length = Cep3 full length (Saccharomyces cerevisiae, UniProt P40969 1-608); assay: EMSA; DNA 1.6 uM, protein 6.4 uM; binds tightly; EMSA: 25 mM HEPES pH 8.0, 200 mM KCl, 2 mM DTT, 10% glycerol, 0.02% NP-40, 10 mM MgCl2, 10 uM ZnCl2; room temperature 45 min; native PAGE at 4 C; conditions: protein: recombinant; tags: N-terminal His; chain copies: 2; label: fluorescent label, singly or doubly labeled
Sequence of Cep3 full length (P40969 whole entry): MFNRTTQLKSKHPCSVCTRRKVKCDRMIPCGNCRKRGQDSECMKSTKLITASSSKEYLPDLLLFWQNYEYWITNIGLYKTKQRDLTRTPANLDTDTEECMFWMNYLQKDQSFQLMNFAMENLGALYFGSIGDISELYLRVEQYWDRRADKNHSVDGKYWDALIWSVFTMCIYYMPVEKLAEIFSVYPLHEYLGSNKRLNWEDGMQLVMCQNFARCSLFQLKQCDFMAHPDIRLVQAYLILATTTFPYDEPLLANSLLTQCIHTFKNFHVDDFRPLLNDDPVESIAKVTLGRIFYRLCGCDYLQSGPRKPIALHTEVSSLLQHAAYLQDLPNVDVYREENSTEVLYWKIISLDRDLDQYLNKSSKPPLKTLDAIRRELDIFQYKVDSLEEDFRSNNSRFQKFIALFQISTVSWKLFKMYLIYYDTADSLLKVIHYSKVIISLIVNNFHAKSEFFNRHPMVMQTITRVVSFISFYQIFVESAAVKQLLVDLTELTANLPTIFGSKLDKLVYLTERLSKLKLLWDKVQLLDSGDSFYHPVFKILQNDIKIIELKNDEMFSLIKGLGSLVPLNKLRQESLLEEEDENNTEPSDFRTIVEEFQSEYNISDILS

Ctf13;Skp1;Cep3ΔN [2] = target: T1, Ctf13;Skp1;Cep3ΔN; assay: competition; 80 uM unlabeled competitor, 50x; competes labeled CDEIII; EMSA: 25 mM HEPES pH 8.0, 200 mM KCl, 2 mM DTT, 10% glycerol, 0.02% NP-40, 10 mM MgCl2, 10 uM ZnCl2; room temperature 45 min; native PAGE at 4 C; conditions: protein: recombinant;recombinant;recombinant; tags: C-terminal CBP;;N-terminal His; copies: 1;1;2

Binder | binding result (Cep3ΔN) | binding result (Ctf13;Skp1;Cep3ΔN [1]) | binding result (Cep3 full length) | binding result (Ctf13;Skp1;Cep3ΔN [2])
CDEIII labeled (dsDNA) DNA 1: AATATTAGTGTATTTGATTTCCGAAAGTTAAA DNA 2: TTTAACTTTCGGAAATCAAATACACTAATATT | no binding | binds | binds | –
CDEIII unlabeled competitor (dsDNA) DNA 1: AATATTAGTGTATTTGATTTCCGAAAGTTAAA DNA 2: TTTAACTTTCGGAAATCAAATACACTAATATT | – | – | – | binds
